Assays:
Assay in all cases: EMSA
[1] = molecular target: T1, Mos-1 mariner transposase (Tnp), produced in bacteria (Drosophila mauritiana) (UniProt Q7JQ07); conditions: CITED (publication submitted), cited from earlier work
T1 sequence: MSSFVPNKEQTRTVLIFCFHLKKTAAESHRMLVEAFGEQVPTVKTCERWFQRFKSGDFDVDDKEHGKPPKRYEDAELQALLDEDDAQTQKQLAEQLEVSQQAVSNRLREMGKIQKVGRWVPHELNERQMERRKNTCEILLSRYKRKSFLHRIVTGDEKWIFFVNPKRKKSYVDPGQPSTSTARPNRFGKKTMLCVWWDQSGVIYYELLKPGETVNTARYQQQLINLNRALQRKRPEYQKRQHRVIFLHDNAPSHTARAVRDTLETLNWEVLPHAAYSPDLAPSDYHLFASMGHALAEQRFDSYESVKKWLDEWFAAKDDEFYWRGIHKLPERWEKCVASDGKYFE

[2] = molecular target: T2, Mos-1 transposase in vitro translated, dephosphorylated with CIP (Drosophila mauritiana) (UniProt Q7JQ07); conditions: Scatchard, 5 mM MgCl2, 20 mM Tris pH 9, ice
T2 sequence: T1 sequence

[3] = molecular target: T3, MBP-Tnp (Mos-1 transposase, phosphorylated, insect cells) (Drosophila mauritiana) (UniProt Q7JQ07); conditions: single Kd; Scatchard; 5 mM MgCl2, 20 mM Tris pH 9, ice
T3 sequence: T1 sequence

[4] = molecular target: T4, MBP-Tnp dephosphorylated with CIP (Drosophila mauritiana) (UniProt Q7JQ07); conditions: Scatchard, 5 mM MgCl2, 20 mM Tris pH 9, ice
T4 sequence: T1 sequence

[5] = molecular target: T5, Mos-1 transposase (Tnp), rabbit reticulocyte TnT, phosphorylated (Drosophila mauritiana) (UniProt Q7JQ07); conditions: single Kd; Scatchard; 5 mM MgCl2, 20 mM Tris pH 9, ice
T5 sequence: T1 sequence

For “Mos-1 ITR 3' (EcoRI/XbaI fragment of pBS(3'))”, the Kd ([1]; Kd1, specific ITR 3' binding, Scatchard) is listed as 0.6 nM, the Kd ([1]; Kd2, ITR bound as integration target) is listed as 10 nM and the Kd ([2]; Kd1, second Kd (Kd2) 15.5 nM) is listed as 1.3 nM. It also gave a Kd ([2]; Kd2 (second site)) of 15.5 nM, a Kd [3] of 39 nM and a Kd ([4]; Kd1, second Kd (Kd2) 24.69 nM) of 0.66 nM. For the same substance, the Kd ([4]; Kd2 (second site)) was 24.7 nM and the Kd [5] was 74 nM.

From patent US7732209
